The DeepSol protein solubility set

Test: soluble on expression in E. coli; label from the status in PepcDB or PDB records

Row | Sequence | soluble on expression in E. coli
1 | MAHHHHHHMNVEVTGRCFFTGDDYYISLPITNRAANRGEPRQLLCSEMIHWDDYRQERGINDGKPPMQQLFASSYAEPLVRTFALGNDTYVTQVTGVSATQAGSSSQMFSAEMLHWDDYCAARGINAGEPTMASLFRPFESKSILVFDLNERKLTEFEGNSVALISYGADRQTYCSEMEHRDDYIRAKTGQAPQPSMASLFA | not soluble
2 | MAHHHHHHMPAVKQHLTGKASAAMRPTPSDAGAVLEPLTVRPSRVTTTTDHLTTSSAISTISVDTIRECGSAEDAYEAGKELGGVGPVFTGVAVPAEHPVAAAMPADAAELRHEEELKVIMCRYRPQSTEN | soluble
3 | MAHHHHHHMPLKFAPKALNPEDSMRLAVVHMLRHDNAVILQTFTGNRGSSATRHGRLLRFMPHFPFCPTEKTGETAEEAPHLVEIAPLQLPYWARGSSRETMWPAARTPEAVHPSPPHFPHFLAERSSSLFVSISLPHFDLPLVFASPRREQRCSRDCRAEWLPRAVMDRDVAATWDEMLSAFCAAWSAAVRIEKTPFALLPPSLSHPLLAEQPLGEGRVPLQDEPAASFRLDPIVVPRRKLDRQRSERMLPPILAVDVAGKWNDTPSVFKSQEAALQRRFLAVARTLERTTAAPSRPLIVASVETPLTSDAAGECERLELASVVVPPFMCTQRMKAGRPWREGGHAGGRDTLVQEHSESLFSRMPPCMTRATELRFPDGKHMRQTLTLRNTAKERLEKLCGLRPPRRHRQKMAECFSTSKFSIARSRELAAAALLPSTVLSAASRVKPPHCSERKRRRGDVPPPPPPLQLLPHVRATAVFAFSSWQPLTLEEEEEENNDTCCEEELKIAPWRVFPREVELQSFQQLLERRIERNGKAMRVGNDDEEEKWYHAAFVHDVNTMPLPYREVSDLVEDARLHYCYRLALHREKRRLGL | not soluble
4 | MAHHHHHHMPLRIGGFNVCCYHDCTNAAAIHAELKRRHIDAAVVDHAFLISPLQLAVALFRVEGSADMLTTRSPFTISPPLAEASSPSPTSTSASPSLPPLLQQQPTRRVSNSRQIFAALSLSHNLDRILQVLPPGPQTTSVVIIYKRSGSARAAAVSFADDVGADSAVASTVPDGDGLDATINACVQLTNSAAQAHTFALITEPFWTGAAFAFADVSKVALFYGISESMLLAAQRSMTRADVRRVCVGAESQEAPAQVLRWHALEVCVTTLLSACTA | soluble
5 | MAHHHHHHMPPLAQLCALALQYRCDLSQEIDQNIRSCFHSSRVPSISLWDYIRRFAKYSVCSEECFILAMVLMDRYVCKTQIPITLRNVHRLYITAMTLSVKLRDDSYYSNAYYASIGGVVNAELNVLELELLDIVQWFTWVEKSVYDAYVARLEALFGDAMPKLLVASPNK | not soluble
6 | MAHHHHHHMPRALRYCRPRRDPDESLLAYLSTKFTYLADAQWRQHIAAGDISVNGETLTDGSYVLRQGDMLRFAPPRSLEPPVDSEHIEVLYEDSTLLVVTKNGNLPVAEGGRYCENTLVEVLRRRGTAAFYTASTRTSFGTTHEDTEKVSDSPTHAGEIVETAARAEGSTAMDASGKGAEIPTSPPSRRRLEDGSHGIFAVGSAPCASVPSPKASTVQQRSSLDLFTVQRLDKETSGVVVLAKNSVSARTLASQLEAQTKGCADAVESRLRERGHAVALSSDAFDELLRLKAQSVHKTYTAVLRGAAPEDHTFVVVNCMDCMAKHPTHSWEAQHTQLKKLKMCCEPVKEMLFSHAAAALPQSPKEQQTRWGRLAVTRIRVLASNKKLGLTCVQVELLTGRSHQIRLHCAAVGYPVLGDKLYTTMTPGREGGATAVSDAVYLERVRREDDPYLPIDDDVSGAGGSSRSGKMWCRRHLLHATRIIFAHPDVSPARLMTFMASPAPFFTADVRFECEEDSLLFSQWLTRAVSRPLERAEASQS | not soluble
7 | MAHHHHHHMPRPPQRIRAQSEGVVGRWYTNYWTLHSVRYQCQLAGVEWQFGERQRPRTNYDEPHMYTDFEETKAIRDYRSRWINVNRSLVGMSRRMKESEEEARYLHFKKVQDTFWSNRKVLVNRIKSMHNQGTLQSAKDLPIKTINIKAFLAE | soluble
8 | MAHHHHHHMPRSEKQSEEDDWELHPLFLSKIPNKKDINKNQALSALITLINEEEEKEVFSYEPRRKNLKKKITEKGQIIYKKDRRNFYEPYQQNKNDKINYFEKKTLGGHSDVSKEEEVMDVEVDEEGTPLTAAQQGGDHSGQNVSSSQQATDETSIGEVLVCLSMINLK | not soluble
